Test results published in IntAct's records for PubMed 17828277.

B1: CAP-Gly domain-containing linker protein 1 (Homo sapiens), P30622-1 (parent)
chain: MSMLKPSGLKAPTKILKPGSTALKTPTAVVAPVEKTISSEKASSTPSSETQEEFVDDFRVGERVWVNGNKPGFIQFLGETQFAPGQWAGIVLDEPIGKNDGSVAGVRYFQCEPLKGIFTRPSKLTRKVQAEDEANGLQTTPASRATSPLCTSTASMVSSSPSTPSNIPQKPSQPAAKEPSATPPISNLTKTASESISNLSEAGSIKKGERELKIGDRVLVGGTKAGVVRFLGETDFAKGEWCGVELDEPLGKNDGAVAGTRYFQCQPKYGLFAPVHKVTKIGFPSTTPAKAKANAVRRVMATTSASLKRSPSASSLSSMSSVASSVSSRPSRTGLLTETSSRYARKISGTTALQEALKEKQQHIEQLLAERDLERAEVAKATSHVGEIEQELALARDGHDQHVLELEAKMDQLRTMVEAADREKVELLNQLEEEKRKVEDLQFRVEEESITKGDLETQTKLEHARIKELEQSLLFEKTKADKLQRELEDTRVATVSEKSRIMELEKDLALRVQEVAELRRRLESNKPAGDVDMSLSLLQEISSLQEKLEVTRTDHQREITSLKEHFGAREETHQKEIKALYTATEKLSKENESLKSKLEHANKENSDVIALWKSKLETAIASHQQAMEELKVSFSKGLGTETAEFAELKTQIEKMRLDYQHEIENLQNQQDSERAAHAKEMEALRAKLMKVIKEKENSLEAIRSKLDKAEDQHLVEMEDTLNKLQEAEIKVKELEVLQAKCNEQTKVIDNFTSQLKATEEKLLDLDALRKASSEGKSEMKKLRQQLEAAEKQIKHLEIEKNAESSKASSITRELQGRELKLTNLQENLSEVSQVKETLEKELQILKEKFAEASEEAVSVQRSMQETVNKLHQKEEQFNMLSSDLEKLRENLADMEAKFREKDEREEQLIKAKEKLENDIAEIMKMSGDNSSQLTKMNDELRLKERDVEELQLKLTKANENASFLQKSIEDMTVKAEQSQQEAAKKHEEEKKELERKLSDLEKKMETSHNQCQELKARYERATSETKTKHEEILQNLQKTLLDTEDKLKGAREENSGLLQELEELRKQADKAKAAQTAEDAMQIMEQMTKEKTETLASLEDTKQTNAKLQNELDTLKENNLKNVEELNKSKELLTVENQKMEEFRKEIETLKQAAAQKSQQLSALQEENVKLAEELGRSRDEVTSHQKLEEERSVLNNQLLEMKKRESKFIKDADEEKASLQKSISITSALLTEKDAELEKLRNEVTVLRGENASAKSLHSVVQTLESDKVKLELKVKNLELQLKENKRQLSSSSGNTDTQADEDERAQESQIDFLNSVIVDLQRKNQDLKMKVEMMSEAALNGNGDDLNNYDSDDQEKQSKKKPRLFCDICDCFDLHDTEDCPTQAQMSEDPPHSTHHGSRGEERPYCEICEMFGHWATNCNDDETF
B2: Microtubule-associated protein RP/EB family member 1 (Homo sapiens), Q15691 (parent)
chain: MAVNVYSTSVTSDNLSRHDMLAWINESLQLNLTKIEQLCSGAAYCQFMDMLFPGSIALKKVKFQAKLEHEYIQNFKILQAGFKRMGVDKIIPVDKLVKGKFQDNFEFVQWFKKFFDANYDGKDYDPVAARQGQETAVAPSLVAPALNKPKKPLTSSSAAPQRPISTQRTAAAPKAGPGVVRKNPGVGNGDDEAAELMQQVNVLKLTVEDLEKERDFYFGKLRNIELICQENEGENDPVLQRIVDILYATDEGFVIPDEGGPQEEQEEY

Variants of: B1
Conditions: with dctn1_human DCTN1, Q14203
Target sequence in this assay (Q14203 whole entry): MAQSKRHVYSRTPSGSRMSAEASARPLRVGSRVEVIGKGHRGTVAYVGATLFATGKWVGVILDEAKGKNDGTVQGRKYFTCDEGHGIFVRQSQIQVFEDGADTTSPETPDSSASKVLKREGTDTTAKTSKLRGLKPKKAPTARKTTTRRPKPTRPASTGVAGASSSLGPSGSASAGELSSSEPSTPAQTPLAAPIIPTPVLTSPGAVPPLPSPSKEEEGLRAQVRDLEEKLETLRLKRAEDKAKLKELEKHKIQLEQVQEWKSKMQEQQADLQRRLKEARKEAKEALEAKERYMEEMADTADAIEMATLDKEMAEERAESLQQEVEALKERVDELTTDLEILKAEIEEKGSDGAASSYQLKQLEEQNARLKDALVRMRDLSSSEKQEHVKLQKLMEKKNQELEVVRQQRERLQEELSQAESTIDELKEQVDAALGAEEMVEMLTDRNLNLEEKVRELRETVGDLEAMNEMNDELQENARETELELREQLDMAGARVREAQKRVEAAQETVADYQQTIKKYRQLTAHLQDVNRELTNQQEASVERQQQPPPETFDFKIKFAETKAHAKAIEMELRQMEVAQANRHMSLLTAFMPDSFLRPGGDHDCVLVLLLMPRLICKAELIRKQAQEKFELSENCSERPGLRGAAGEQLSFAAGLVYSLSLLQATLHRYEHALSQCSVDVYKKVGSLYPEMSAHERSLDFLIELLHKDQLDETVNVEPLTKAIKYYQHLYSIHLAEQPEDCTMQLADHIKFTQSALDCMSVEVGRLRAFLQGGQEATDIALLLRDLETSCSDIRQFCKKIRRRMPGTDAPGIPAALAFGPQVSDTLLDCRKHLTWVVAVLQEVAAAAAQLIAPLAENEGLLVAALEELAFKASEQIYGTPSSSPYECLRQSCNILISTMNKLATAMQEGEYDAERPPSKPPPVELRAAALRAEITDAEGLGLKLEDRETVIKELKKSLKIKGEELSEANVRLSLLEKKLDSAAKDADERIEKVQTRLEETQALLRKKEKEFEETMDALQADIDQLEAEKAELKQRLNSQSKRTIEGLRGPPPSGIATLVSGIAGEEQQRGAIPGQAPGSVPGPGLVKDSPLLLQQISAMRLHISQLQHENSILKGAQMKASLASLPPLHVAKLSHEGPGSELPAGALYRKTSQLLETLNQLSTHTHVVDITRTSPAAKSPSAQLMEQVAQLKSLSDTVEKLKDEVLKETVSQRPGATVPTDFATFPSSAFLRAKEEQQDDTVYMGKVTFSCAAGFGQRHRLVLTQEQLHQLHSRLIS

Variant	effect of a mutation on the interaction
I1410D	decreasing interaction strength
I1410H	decreasing interaction strength

Variants of: B2
Conditions: with dctn1_human DCTN1, Q14203
Target sequence in this assay (Q14203 whole entry): as above

Variant	effect of a mutation on the interaction
MAVNVYSTSVTSDNLSRHDMLAWINESLQLNLTKIEQLCSGAAYCQFMDMLFPGSIALKKVKFQAKLEHEYIQNFKILQAGFKRMGVDKIIPVDKLVKGKFQDNFEFVQWFKKFFDANYDGKDYDPVAARQGQETAVAPSLVAPALNKPKKPLTSSSAAPQRPISTQRTAAAPKAGPGVVRKNPGVGNGDDEAAELMQQVNVLKLTVEDLEKERDFYFGKLRNIELICQENEGENDPVLQRIVDILYATDEGFVIPDEGGPQEEQEEI [Y268I]	decreasing interaction strength
MAVNVYSTSVTSDNLSRHDMLAWINESLQLNLTKIEQLCSGAAYCQFMDMLFPGSIALKKVKFQAKLEHEYIQNFKILQAGFKRMGVDKIIPVDKLVKGKFQDNFEFVQWFKKFFDANYDGKDYDPVAARQGQETAVAPSLVAPALNKPKKPLTSSSAAPQRPISTQRTAAAPKAGPGVVRKNPGVGNGDDEAAELMQQVNVLKLTVEDLEKERDFYFGKLRNIELICQENEGENDPVLQRIVDILYATDEGFVIPDEGGPQEEQEEG [Y268G]	decreasing interaction strength
